For 34 variants, abundance fitness results are on record in the Human Domainome abundance scans (Beltran et al. 2025).

The chains are these.
B1: Gamma-crystallin S, residues 96 to 176; numbered along this chain, P22914 (parent)
chain: IQIFEKGDFSGQMYETTEDCPSIMEQFHMREIHSCKVLEGVWIFYELPNYRGRQYLLDKKEYRKPIDWGAASPAVQSFRRI

± gives the uncertainty stated by the source.

Variants of B1 are the subject of this data set. As to the kind of experiment: abundance fitness (aPCA) (normalised: wild type 0, dead -1); higher = more abundant; growth selection in yeast, the domain comes from the species named. Conditions: Homo sapiens.
Consider IQIFEKFDFSGQMYETTEDCPSIMEQFHMREIHSCKVLEGVWIFYELPNYRGRQYLLDKKEYRKPIDWGAASPAVQSFRRI [G7F], for which the abundance fitness was found to be 0.084 ± 0.12.

Take IQIFEKDDFSGQMYETTEDCPSIMEQFHMREIHSCKVLEGVWIFYELPNYRGRQYLLDKKEYRKPIDWGAASPAVQSFRRI [G7D]: the abundance fitness was -0.019 ± 0.091.

Take IQIFEKWDFSGQMYETTEDCPSIMEQFHMREIHSCKVLEGVWIFYELPNYRGRQYLLDKKEYRKPIDWGAASPAVQSFRRI [G7W]: the abundance fitness was -0.041 ± 0.049.

As for IQIFEKTDFSGQMYETTEDCPSIMEQFHMREIHSCKVLEGVWIFYELPNYRGRQYLLDKKEYRKPIDWGAASPAVQSFRRI [G7T], the abundance fitness was -0.03 ± 0.042.

Take IQIFEKSDFSGQMYETTEDCPSIMEQFHMREIHSCKVLEGVWIFYELPNYRGRQYLLDKKEYRKPIDWGAASPAVQSFRRI [G7S]: the abundance fitness is -0.01 ± 0.054.

In the case of IQIFEKHDFSGQMYETTEDCPSIMEQFHMREIHSCKVLEGVWIFYELPNYRGRQYLLDKKEYRKPIDWGAASPAVQSFRRI [G7H], the abundance fitness was found to be 0.013 ± 0.076.

In the case of IQIFEKCDFSGQMYETTEDCPSIMEQFHMREIHSCKVLEGVWIFYELPNYRGRQYLLDKKEYRKPIDWGAASPAVQSFRRI [G7C], the abundance fitness is -0.367 ± 0.086.

Consider IQIFEKADFSGQMYETTEDCPSIMEQFHMREIHSCKVLEGVWIFYELPNYRGRQYLLDKKEYRKPIDWGAASPAVQSFRRI [G7A], for which the abundance fitness is 0.043 ± 0.043.

On to IQIFEKEDFSGQMYETTEDCPSIMEQFHMREIHSCKVLEGVWIFYELPNYRGRQYLLDKKEYRKPIDWGAASPAVQSFRRI [G7E], for which the abundance fitness is -0.027 ± 0.061.

Consider IQIFEKRDFSGQMYETTEDCPSIMEQFHMREIHSCKVLEGVWIFYELPNYRGRQYLLDKKEYRKPIDWGAASPAVQSFRRI [G7R], for which the abundance fitness worked out at 0.052 ± 0.033.

Turning to IQIFEKNDFSGQMYETTEDCPSIMEQFHMREIHSCKVLEGVWIFYELPNYRGRQYLLDKKEYRKPIDWGAASPAVQSFRRI [G7N], the abundance fitness was -0.16 ± 0.13.

As for IQIFEKPDFSGQMYETTEDCPSIMEQFHMREIHSCKVLEGVWIFYELPNYRGRQYLLDKKEYRKPIDWGAASPAVQSFRRI [G7P], the abundance fitness is 0.007 ± 0.066.

For the variant IQIFEKIDFSGQMYETTEDCPSIMEQFHMREIHSCKVLEGVWIFYELPNYRGRQYLLDKKEYRKPIDWGAASPAVQSFRRI [G7I], the abundance fitness came to 0.034 ± 0.14.

IQIFEKMDFSGQMYETTEDCPSIMEQFHMREIHSCKVLEGVWIFYELPNYRGRQYLLDKKEYRKPIDWGAASPAVQSFRRI [G7M]: the abundance fitness is 0.012 ± 0.07.

Turning to IQIFEKKDFSGQMYETTEDCPSIMEQFHMREIHSCKVLEGVWIFYELPNYRGRQYLLDKKEYRKPIDWGAASPAVQSFRRI [G7K], the abundance fitness was 0.079 ± 0.055.

For the variant IQIFEKQDFSGQMYETTEDCPSIMEQFHMREIHSCKVLEGVWIFYELPNYRGRQYLLDKKEYRKPIDWGAASPAVQSFRRI [G7Q], the abundance fitness is -0.099 ± 0.064.

Consider IQIFEKVDFSGQMYETTEDCPSIMEQFHMREIHSCKVLEGVWIFYELPNYRGRQYLLDKKEYRKPIDWGAASPAVQSFRRI [G7V], for which the abundance fitness is -0.012 ± 0.043.

For IQICEKGDFSGQMYETTEDCPSIMEQFHMREIHSCKVLEGVWIFYELPNYRGRQYLLDKKEYRKPIDWGAASPAVQSFRRI [F4C], the abundance fitness is -0.008 ± 0.079.

For the variant IQIYEKGDFSGQMYETTEDCPSIMEQFHMREIHSCKVLEGVWIFYELPNYRGRQYLLDKKEYRKPIDWGAASPAVQSFRRI [F4Y], the abundance fitness was -0.094 ± 0.096.

Turning to IQISEKGDFSGQMYETTEDCPSIMEQFHMREIHSCKVLEGVWIFYELPNYRGRQYLLDKKEYRKPIDWGAASPAVQSFRRI [F4S], the abundance fitness is -0.113 ± 0.031.

For the variant IQIHEKGDFSGQMYETTEDCPSIMEQFHMREIHSCKVLEGVWIFYELPNYRGRQYLLDKKEYRKPIDWGAASPAVQSFRRI [F4H], the abundance fitness is -0.017 ± 0.095.

In the case of IQINEKGDFSGQMYETTEDCPSIMEQFHMREIHSCKVLEGVWIFYELPNYRGRQYLLDKKEYRKPIDWGAASPAVQSFRRI [F4N], the abundance fitness was -0.231 ± 0.11.

IQIMEKGDFSGQMYETTEDCPSIMEQFHMREIHSCKVLEGVWIFYELPNYRGRQYLLDKKEYRKPIDWGAASPAVQSFRRI [F4M]: the abundance fitness is -0.045 ± 0.064.

Regarding IQIQEKGDFSGQMYETTEDCPSIMEQFHMREIHSCKVLEGVWIFYELPNYRGRQYLLDKKEYRKPIDWGAASPAVQSFRRI [F4Q], the abundance fitness is -0.868 ± 0.14.

Consider IQIEEKGDFSGQMYETTEDCPSIMEQFHMREIHSCKVLEGVWIFYELPNYRGRQYLLDKKEYRKPIDWGAASPAVQSFRRI [F4E], for which the abundance fitness was -1.16 ± 0.23.

Consider IQITEKGDFSGQMYETTEDCPSIMEQFHMREIHSCKVLEGVWIFYELPNYRGRQYLLDKKEYRKPIDWGAASPAVQSFRRI [F4T], for which the abundance fitness was -0.585 ± 0.094.

As to IQIGEKGDFSGQMYETTEDCPSIMEQFHMREIHSCKVLEGVWIFYELPNYRGRQYLLDKKEYRKPIDWGAASPAVQSFRRI [F4G], the abundance fitness is -0.414 ± 0.042.

In the case of IQIIEKGDFSGQMYETTEDCPSIMEQFHMREIHSCKVLEGVWIFYELPNYRGRQYLLDKKEYRKPIDWGAASPAVQSFRRI [F4I], the abundance fitness is -0.987 ± 0.14.

In the case of IQIDEKGDFSGQMYETTEDCPSIMEQFHMREIHSCKVLEGVWIFYELPNYRGRQYLLDKKEYRKPIDWGAASPAVQSFRRI [F4D], the abundance fitness was -0.971 ± 0.2.

For the variant IQIPEKGDFSGQMYETTEDCPSIMEQFHMREIHSCKVLEGVWIFYELPNYRGRQYLLDKKEYRKPIDWGAASPAVQSFRRI [F4P], the abundance fitness was -0.967 ± 0.18.

IQIVEKGDFSGQMYETTEDCPSIMEQFHMREIHSCKVLEGVWIFYELPNYRGRQYLLDKKEYRKPIDWGAASPAVQSFRRI [F4V]: the abundance fitness is -0.906 ± 0.082.

Regarding IQIKEKGDFSGQMYETTEDCPSIMEQFHMREIHSCKVLEGVWIFYELPNYRGRQYLLDKKEYRKPIDWGAASPAVQSFRRI [F4K], the abundance fitness was -0.193 ± 0.19.

In the case of IQIWEKGDFSGQMYETTEDCPSIMEQFHMREIHSCKVLEGVWIFYELPNYRGRQYLLDKKEYRKPIDWGAASPAVQSFRRI [F4W], the abundance fitness is -0.067 ± 0.056.

Turning to IQIREKGDFSGQMYETTEDCPSIMEQFHMREIHSCKVLEGVWIFYELPNYRGRQYLLDKKEYRKPIDWGAASPAVQSFRRI [F4R], the abundance fitness is -0.945 ± 0.11.
